B1: Protein patched homolog 1 (Homo sapiens), Q13635-1 (parent)
chain: MASAGNAAEPQDRGGGGSGCIGAPGRPAGGGRRRRTGGLRRAAAPDRDYLHRPSYCDAAFALEQISKGKATGRKAPLWLRAKFQRLLFKLGCYIQKNCGKFLVVGLLIFGAFAVGLKAANLETNVEELWVEVGGRVSRELNYTRQKIGEEAMFNPQLMIQTPKEEGANVLTTEALLQHLDSALQASRVHVYMYNRQWKLEHLCYKSGELITETGYMDQIIEYLYPCLIITPLDCFWEGAKLQSGTAYLLGKPPLRWTNFDPLEFLEELKKINYQVDSWEEMLNKAEVGHGYMDRPCLNPADPDCPATAPNKNSTKPLDMALVLNGGCHGLSRKYMHWQEELIVGGTVKNSTGKLVSAHALQTMFQLMTPKQMYEHFKGYEYVSHINWNEDKAAAILEAWQRTYVEVVHQSVAQNSTQKVLSFTTTTLDDILKSFSDVSVIRVASGYLLMLAYACLTMLRWDCSKSQGAVGLAGVLLVALSVAAGLGLCSLIGISFNAATTQVLPFLALGVGVDDVFLLAHAFSETGQNKRIPFEDRTGECLKRTGASVALTSISNVTAFFMAALIPIPALRAFSLQAAVVVVFNFAMVLLIFPAILSMDLYRREDRRLDIFCCFTSPCVSRVIQVEPQAYTDTHDNTRYSPPPPYSSHSFAHETQITMQSTVQLRTEYDPHTHVYYTTAEPRSEISVQPVTVTQDTLSCQSPESTSSTRDLLSQFSDSSLHCLEPPCTKWTLSSFAEKHYAPFLLKPKAKVVVIFLFLGLLGVSLYGTTRVRDGLDLTDIVPRETREYDFIAAQFKYFSFYNMYIVTQKADYPNIQHLLYDLHRSFSNVKYVMLEENKQLPKMWLHYFRDWLQGLQDAFDSDWETGKIMPNNYKNGSDDGVLAYKLLVQTGSRDKPIDISQLTKQRLVDADGIINPSAFYIYLTAWVSNDPVAYAASQANIRPHRPEWVHDKADYMPETRLRIPAAEPIEYAQFPFYLNGLRDTSDFVEAIEKVRTICSNYTSLGLSSYPNGYPFLFWEQYIGLRHWLLLFISVVLACTFLVCAVFLLNPWTAGIIVMVLALMTVELFGMMGLIGIKLSAVPVVILIASVGIGVEFTVHVALAFLTAIGDKNRRAVLALEHMFAPVLDGAVSTLLGVLMLAGSEFDFIVRYFFAVLAILTILGVLNGLVLLPVLLSFFGPYPEVSPANGLNRLPTPSPEPPPSVVRFAMPPGHTHSGSDSSDSEYSSQTTVSGLSEELRHYEAQQGAGGPAHQVIVEATENPVFAHSTVVHPESRHHPPSNPRQQPHLDSGSLPPGRQGQQPRRDPPREGLWPPPYRPRRDAFEISTEGHSGPSNRARWGPRGARSHNPRNPASTAMGSSVPGYCQPITTVTASASVTVAVHPPPVPGPGRNPRGGLCPGYPETDHGLFEDPHVPFHVRCERRDSKVEVIELQDVECEERPRGSSSN

Variants of: B1
Conditions: with shh_human SHH

Effect of a mutation on the interaction, disrupting interaction:
T500F;P504L
L282Q;T500F;P504L
G509V
L282Q
D513Y

Reference: IntAct's records for PubMed 29954986
